In paper PMC3440434, “Efficient Antifouling Surface for Quantitative Surface Plasmon Resonance Based Biosensor Analysis”:

Columns and labels:
PFV-1 IN (integrase) [1] = target: T1, PFV-1 IN (integrase) (PFV-1, UniProt P14350 752-1143); test: SPR imaging; KD1, fast phase of two-phase fit; 200 nM IN; ka1 2.2e5 M-1s-1, kd1 5.8e-3 s-1; 10 mM MgCl2; 20 mM Hepes pH 8, 10 mM MgCl2, 100 mM NaCl, 25 ul/min; EG4-pretreated gold SPRi surface; temperature not given; conditions: protein: recombinant; label: none (immobilized on gold via 5' thiol); 5' overhang 5 nt (T5 spacer) on strand 1, other end blunt
PFV-1 IN (integrase) [2] = target: T1, PFV-1 IN (integrase); test: SPR imaging; 4 nM IN, monophasic; 5 uM dsDNA spots; ka 3.7e6 M-1s-1, kd 1.8e-3 s-1; text prints 4.9e-9 M but the rates give 4.9e-10; 10 mM MgCl2; 20 mM Hepes pH 8, 10 mM MgCl2, 100 mM NaCl, 25 ul/min; EG4-pretreated gold SPRi surface; temperature not given; conditions: protein: recombinant; label: none (immobilized on gold via 5' thiol); 5' overhang 5 nt (T5 spacer) on strand 1, other end blunt

B1: SH-5T-dsDNA (random 38 bp) (dsDNA)
DNA 1: TTTTTCTAAGCTAGAAGATTACTCCAAGTACATAATCTAAAAT
DNA 2: ATTTTAGATTATGTACTTGGAGTAATCTTCTAGCTTAG
modifications: 5' thiol-C6 on strand 1
For B1, the Kd (PFV-1 IN (integrase) [1]) was 26 nM and the Kd (PFV-1 IN (integrase) [2]) was 0.49 nM.
